Reference: the supplement of paper PMC9233669
Fewer inactive variants are shown than the library holds.

How the values were obtained:
biotinyl-Phe-oxazolone = assay: self-aminoacylation, catalytic enhancement (BFO) (fold over background); higher = more active; k-Seq, kA / k0A0; sequences stand for … in GGGAAUGGAUCCACAUCUACGAAUUC…UUCACUGCAGACUUGACGAAGCUG
How it was run: (§1)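 Mutagenized RNA pools with a 21-nt variable region (0.43 μM) were reacted with each biotinyl-aminoacyl-oxazolone at 2–1250 μM for 90 minutes at room temperature, in 50 μL HEPES/NaCl/KCl/MgCl2/CaCl2 buffer containing 5% acetonitrile at pH 6.9–7.0. RNA captured on streptavidin was quantified by triplicate qPCR and by Illumina sequencing. The fraction reacted for each sequence was fit to a pseudo-first-order model with bootstrapping, and catalytic enhancement is the median kA divided by the uncatalyzed rate, taken as the low-activity peak of a bimodal Gaussian fit.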

biotinyl-Ile-oxazolone = assay: self-aminoacylation, catalytic enhancement (BIO) (fold over background); higher = more active; k-Seq, kA / k0A0; sequences stand for … in GGGAAUGGAUCCACAUCUACGAAUUC…UUCACUGCAGACUUGACGAAGCUG
How it was run: as §1

biotinyl-Met-oxazolone = assay: self-aminoacylation, catalytic enhancement (BMO) (fold over background); higher = more active; k-Seq, kA / k0A0; sequences stand for … in GGGAAUGGAUCCACAUCUACGAAUUC…UUCACUGCAGACUUGACGAAGCUG
How it was run: as §1

biotinyl-Val-oxazolone = assay: self-aminoacylation, catalytic enhancement (BVO) (fold over background); higher = more active; k-Seq, kA / k0A0; sequences stand for … in GGGAAUGGAUCCACAUCUACGAAUUC…UUCACUGCAGACUUGACGAAGCUG
How it was run: as §1

biotinyl-Leu-oxazolone = assay: self-aminoacylation, catalytic enhancement (BLO) (fold over background); higher = more active; k-Seq, kA / k0A0; sequences stand for … in GGGAAUGGAUCCACAUCUACGAAUUC…UUCACUGCAGACUUGACGAAGCUG
How it was run: as §1

biotinyl-Trp-oxazolone = assay: self-aminoacylation, catalytic enhancement (BWO) (fold over background); higher = more active; k-Seq, kA / k0A0; sequences stand for … in GGGAAUGGAUCCACAUCUACGAAUUC…UUCACUGCAGACUUGACGAAGCUG
How it was run: as §1

With “AAGAUUGCUCAUAGUCGCAAG [Fam3.1 aminoacylation ribozyme variant]” the self-aminoacylation (biotinyl-Phe-oxazolone) was 1.91, the self-aminoacylation (biotinyl-Ile-oxazolone) was 1.45 and the self-aminoacylation (biotinyl-Met-oxazolone) was 1.56. For the same sequence, the self-aminoacylation (biotinyl-Val-oxazolone) was 1.62, the self-aminoacylation (biotinyl-Leu-oxazolone) was 1.95 and the self-aminoacylation (biotinyl-Trp-oxazolone) was 2.09.
Sequence “AAGCUUGCGAAUAGUCGCAAG [Fam3.1 aminoacylation ribozyme variant]” has a self-aminoacylation (biotinyl-Phe-oxazolone) of 2.7, a self-aminoacylation (biotinyl-Ile-oxazolone) of 2.39 and a self-aminoacylation (biotinyl-Met-oxazolone) of 2.12. The self-aminoacylation (biotinyl-Val-oxazolone) was 1.64, the self-aminoacylation (biotinyl-Leu-oxazolone) was 2.2 and the self-aminoacylation (biotinyl-Trp-oxazolone) was 2.32.
For “AAGCUUGCUAAUACUCGCAAG [Fam3.1 aminoacylation ribozyme variant]”, the self-aminoacylation (biotinyl-Phe-oxazolone) was 1.31, the self-aminoacylation (biotinyl-Ile-oxazolone) was 1.5 and the self-aminoacylation (biotinyl-Met-oxazolone) was 0.693. It also gave a self-aminoacylation (biotinyl-Val-oxazolone) of 1.26, a self-aminoacylation (biotinyl-Leu-oxazolone) of 0.856 and a self-aminoacylation (biotinyl-Trp-oxazolone) of 1.98.
“AAGCUUGCUAAUAGUAGCAAG [Fam3.1 aminoacylation ribozyme variant]” was tested, and the self-aminoacylation (biotinyl-Phe-oxazolone) was 2.27, the self-aminoacylation (biotinyl-Ile-oxazolone) was 1.39 and the self-aminoacylation (biotinyl-Met-oxazolone) was 1.08. For the same sequence, the self-aminoacylation (biotinyl-Val-oxazolone) was 1.3, the self-aminoacylation (biotinyl-Leu-oxazolone) was 1.55 and the self-aminoacylation (biotinyl-Trp-oxazolone) was 2.48.
With “AAGCUUGCUAAUAGUCGCACG [Fam3.1 aminoacylation ribozyme variant]” the self-aminoacylation (biotinyl-Phe-oxazolone) was 4.41, the self-aminoacylation (biotinyl-Ile-oxazolone) was 1.81 and the self-aminoacylation (biotinyl-Met-oxazolone) was 1.29. For the same sequence, the self-aminoacylation (biotinyl-Val-oxazolone) was 1.76, the self-aminoacylation (biotinyl-Leu-oxazolone) was 1.6 and the self-aminoacylation (biotinyl-Trp-oxazolone) was 1.33.
Sequence “AAGCUUGCUAAUAGUCGCGAG [Fam3.1 aminoacylation ribozyme variant]” has a self-aminoacylation (biotinyl-Phe-oxazolone) of 26.9, a self-aminoacylation (biotinyl-Ile-oxazolone) of 2.66 and a self-aminoacylation (biotinyl-Met-oxazolone) of 3.36. The self-aminoacylation (biotinyl-Val-oxazolone) was 1.9, the self-aminoacylation (biotinyl-Leu-oxazolone) was 2.66 and the self-aminoacylation (biotinyl-Trp-oxazolone) was 3.85.
Sequence “AAGCUUGCUAAUAGUCGGAAG [Fam3.1 aminoacylation ribozyme variant]” has a self-aminoacylation (biotinyl-Phe-oxazolone) of 3.45, a self-aminoacylation (biotinyl-Ile-oxazolone) of 1.48 and a self-aminoacylation (biotinyl-Met-oxazolone) of 1.34. It also gave a self-aminoacylation (biotinyl-Val-oxazolone) of 1.3, a self-aminoacylation (biotinyl-Leu-oxazolone) of 1.21 and a self-aminoacylation (biotinyl-Trp-oxazolone) of 1.65.
“AAGCUUGCUAAUGGUCGCAAG [Fam3.1 aminoacylation ribozyme variant]” gave a self-aminoacylation (biotinyl-Phe-oxazolone) of 2.3, a self-aminoacylation (biotinyl-Ile-oxazolone) of 1.77 and a self-aminoacylation (biotinyl-Met-oxazolone) of 2.83. The self-aminoacylation (biotinyl-Val-oxazolone) was 1.76, the self-aminoacylation (biotinyl-Leu-oxazolone) was 1.83 and the self-aminoacylation (biotinyl-Trp-oxazolone) was 3.95.
In the case of “AAGCUUUCUAAUAGUCGCAAG [Fam3.1 aminoacylation ribozyme variant]”, the self-aminoacylation (biotinyl-Phe-oxazolone) is reported as 3.08, the self-aminoacylation (biotinyl-Ile-oxazolone) is reported as 2.02 and the self-aminoacylation (biotinyl-Met-oxazolone) is reported as 1.44. The self-aminoacylation (biotinyl-Val-oxazolone) was 1.71, the self-aminoacylation (biotinyl-Leu-oxazolone) was 1.81 and the self-aminoacylation (biotinyl-Trp-oxazolone) was 1.93.
With “AAGGCUGCUAAUAGUCGCAAG [Fam3.1 aminoacylation ribozyme variant]” the self-aminoacylation (biotinyl-Phe-oxazolone) was 20, the self-aminoacylation (biotinyl-Ile-oxazolone) was 1.73 and the self-aminoacylation (biotinyl-Met-oxazolone) was 2.04. It also gave a self-aminoacylation (biotinyl-Val-oxazolone) of 1.38, a self-aminoacylation (biotinyl-Leu-oxazolone) of 1.64 and a self-aminoacylation (biotinyl-Trp-oxazolone) of 7.19.
Sequence “AAGGUGGCUAAUAGUCGCAAG [Fam3.1 aminoacylation ribozyme variant]” has a self-aminoacylation (biotinyl-Phe-oxazolone) of 1.82, a self-aminoacylation (biotinyl-Ile-oxazolone) of 1.63 and a self-aminoacylation (biotinyl-Met-oxazolone) of 1.65. It also gave a self-aminoacylation (biotinyl-Val-oxazolone) of 1.41, a self-aminoacylation (biotinyl-Leu-oxazolone) of 1.74 and a self-aminoacylation (biotinyl-Trp-oxazolone) of 1.95.
For “AAGGUUGCUAAAAGUCGCAAG [Fam3.1 aminoacylation ribozyme variant]”, the self-aminoacylation (biotinyl-Phe-oxazolone) was 4.28, the self-aminoacylation (biotinyl-Ile-oxazolone) was 1.62 and the self-aminoacylation (biotinyl-Met-oxazolone) was 1.52. It also gave a self-aminoacylation (biotinyl-Val-oxazolone) of 1.67, a self-aminoacylation (biotinyl-Leu-oxazolone) of 1.6 and a self-aminoacylation (biotinyl-Trp-oxazolone) of 1.93.
“AAGGUUGCUAACAGUCGCAAG [Fam3.1 aminoacylation ribozyme variant]” showed a self-aminoacylation (biotinyl-Phe-oxazolone) of 3.97, a self-aminoacylation (biotinyl-Ile-oxazolone) of 1.33 and a self-aminoacylation (biotinyl-Met-oxazolone) of 1.06. The self-aminoacylation (biotinyl-Val-oxazolone) was 1.11, the self-aminoacylation (biotinyl-Leu-oxazolone) was 1.83 and the self-aminoacylation (biotinyl-Trp-oxazolone) was 1.65.
In the case of “AAGGUUGCUAAUAGUCACAAG [Fam3.1 aminoacylation ribozyme variant]”, the self-aminoacylation (biotinyl-Phe-oxazolone) is reported as 4.71, the self-aminoacylation (biotinyl-Ile-oxazolone) is reported as 1.71 and the self-aminoacylation (biotinyl-Met-oxazolone) is reported as 1.72. The self-aminoacylation (biotinyl-Val-oxazolone) was 1.32, the self-aminoacylation (biotinyl-Leu-oxazolone) was 1.57 and the self-aminoacylation (biotinyl-Trp-oxazolone) was 1.72.
“AAGUAAGCUAAUAGUCGCAAG [Fam3.1 aminoacylation ribozyme variant]” was tested, and the self-aminoacylation (biotinyl-Phe-oxazolone) was 2.82, the self-aminoacylation (biotinyl-Ile-oxazolone) was 1.55 and the self-aminoacylation (biotinyl-Met-oxazolone) was 1.18. The self-aminoacylation (biotinyl-Val-oxazolone) was 1.33, the self-aminoacylation (biotinyl-Leu-oxazolone) was 1.43 and the self-aminoacylation (biotinyl-Trp-oxazolone) was 1.5.
For “AAGUAUGCGAAUAGUCGCAAG [Fam3.1 aminoacylation ribozyme variant]”, the self-aminoacylation (biotinyl-Phe-oxazolone) was 1.74, the self-aminoacylation (biotinyl-Ile-oxazolone) was 1.32 and the self-aminoacylation (biotinyl-Met-oxazolone) was 1.13. For the same sequence, the self-aminoacylation (biotinyl-Val-oxazolone) was 1, the self-aminoacylation (biotinyl-Leu-oxazolone) was 1.19 and the self-aminoacylation (biotinyl-Trp-oxazolone) was 0.948.
“AAGUAUGCUAAUAGACGCAAG [Fam3.1 aminoacylation ribozyme variant]” was tested, and the self-aminoacylation (biotinyl-Phe-oxazolone) was 1.04, the self-aminoacylation (biotinyl-Ile-oxazolone) was 0.823 and the self-aminoacylation (biotinyl-Met-oxazolone) was 0.824. For the same sequence, the self-aminoacylation (biotinyl-Val-oxazolone) was 0.637, the self-aminoacylation (biotinyl-Leu-oxazolone) was 0.725 and the self-aminoacylation (biotinyl-Trp-oxazolone) was 0.756.
“AAGUAUGCUAAUAGUAGCAAG [Fam3.1 aminoacylation ribozyme variant]” showed a self-aminoacylation (biotinyl-Phe-oxazolone) of 1.46, a self-aminoacylation (biotinyl-Ile-oxazolone) of 1.53 and a self-aminoacylation (biotinyl-Met-oxazolone) of 1.22. For the same sequence, the self-aminoacylation (biotinyl-Val-oxazolone) was 1.46, the self-aminoacylation (biotinyl-Leu-oxazolone) was 1.54 and the self-aminoacylation (biotinyl-Trp-oxazolone) was 0.882.
“AAGUAUGCUAAUAGUCGCAGG [Fam3.1 aminoacylation ribozyme variant]” was tested, and the self-aminoacylation (biotinyl-Phe-oxazolone) was 2.31, the self-aminoacylation (biotinyl-Ile-oxazolone) was 1.44 and the self-aminoacylation (biotinyl-Met-oxazolone) was 1.37. For the same sequence, the self-aminoacylation (biotinyl-Val-oxazolone) was 1.48, the self-aminoacylation (biotinyl-Leu-oxazolone) was 1.46 and the self-aminoacylation (biotinyl-Trp-oxazolone) was 1.2.
In the case of “AAGUAUGCUAAUAGUCGGAAG [Fam3.1 aminoacylation ribozyme variant]”, the self-aminoacylation (biotinyl-Phe-oxazolone) is reported as 11.1, the self-aminoacylation (biotinyl-Ile-oxazolone) is reported as 1.64 and the self-aminoacylation (biotinyl-Met-oxazolone) is reported as 1.72. For the same sequence, the self-aminoacylation (biotinyl-Val-oxazolone) was 1.29, the self-aminoacylation (biotinyl-Leu-oxazolone) was 1.42 and the self-aminoacylation (biotinyl-Trp-oxazolone) was 4.24.
Sequence “AAGUAUGCUAAUAGUUGCAAG [Fam3.1 aminoacylation ribozyme variant]” has a self-aminoacylation (biotinyl-Phe-oxazolone) of 2.31, a self-aminoacylation (biotinyl-Ile-oxazolone) of 1.44 and a self-aminoacylation (biotinyl-Met-oxazolone) of 1.71. It also gave a self-aminoacylation (biotinyl-Val-oxazolone) of 1.38, a self-aminoacylation (biotinyl-Leu-oxazolone) of 1.11 and a self-aminoacylation (biotinyl-Trp-oxazolone) of 1.73.
With “AAGUAUGCUAAUAUUCGCAAG [Fam3.1 aminoacylation ribozyme variant]” the self-aminoacylation (biotinyl-Phe-oxazolone) was 1.45, the self-aminoacylation (biotinyl-Ile-oxazolone) was 1.95 and the self-aminoacylation (biotinyl-Met-oxazolone) was 1.76. The self-aminoacylation (biotinyl-Val-oxazolone) was 1.46, the self-aminoacylation (biotinyl-Leu-oxazolone) was 2.04 and the self-aminoacylation (biotinyl-Trp-oxazolone) was 2.45.
For “AAGUAUGUUAAUAGUCGCAAG [Fam3.1 aminoacylation ribozyme variant]”, the self-aminoacylation (biotinyl-Phe-oxazolone) was 1.49, the self-aminoacylation (biotinyl-Ile-oxazolone) was 1.44 and the self-aminoacylation (biotinyl-Met-oxazolone) was 1.4. The self-aminoacylation (biotinyl-Val-oxazolone) was 1.24, the self-aminoacylation (biotinyl-Leu-oxazolone) was 1.44 and the self-aminoacylation (biotinyl-Trp-oxazolone) was 1.38.
